Test results from PMC4747905.
One block for each substance: values may come before it.

Tests used:
BRCA1 BRCT domains [1] = target: BRCA1 BRCT domains (UniProt P38398); test: native mass spectrometry, 15 µM; conditions: reference: Ab1p (pS406 only); sites S404
BRCA1 BRCT domains [2] = target: BRCA1 BRCT domains (UniProt P38398); test: small angle X-ray scattering; conditions: reference: Ab1p (pS406 only); sites S404
BRCA1 BRCT domains [3] = target: BRCA1 BRCT domains (UniProt P38398); test: size exclusion chromatography, 1:1 versus 2:2 complex; conditions: reference: Ab1p (pS406 only); sites S404
BRCA1 BRCT domains [4] = target: BRCA1 BRCT domains (UniProt P38398); test: size exclusion chromatography, 1 mg/ml; conditions: sites S406
BRCT-Ab2p complex = BRCT-Ab2p complex (UniProt P38398); test: native MS; peak fractions from gel filtration, 15 μM protein, 300 mM ammonium acetate pH 7.6, nano-electrospray

binding against the reference (BRCA1 BRCT domains [1]): stronger
binding against the reference (BRCA1 BRCT domains [2]): stronger
binding against the reference (BRCA1 BRCT domains [3]): stronger
binding against the reference (BRCA1 BRCT domains [4]; reference: pS404-only peptide): gained
Substance: Abraxas 399-409 (from UniProt Q6UWZ7) Ab2p (pS404 pS406)

stoichiometry N (BRCT-Ab2p complex): 2
Substance: BRCT-Ab2p complex (from UniProt P38398 1646-1859)

binding against the reference (BRCA1 BRCT domains [4]; reference: unphosphorylated peptide): gained
Substance: Abraxas 399-409 (from UniProt Q6UWZ7) pS406 peptide (Ab1p)
